Legend:
Assay in all cases: cell-based or functional assay
[1] = target: T1, human CD19 on cells (human B lymphocytes; Raji, Daudi and Reh tumor cells) (human, UniProt P15391 20-556)
T1 sequence (looked up): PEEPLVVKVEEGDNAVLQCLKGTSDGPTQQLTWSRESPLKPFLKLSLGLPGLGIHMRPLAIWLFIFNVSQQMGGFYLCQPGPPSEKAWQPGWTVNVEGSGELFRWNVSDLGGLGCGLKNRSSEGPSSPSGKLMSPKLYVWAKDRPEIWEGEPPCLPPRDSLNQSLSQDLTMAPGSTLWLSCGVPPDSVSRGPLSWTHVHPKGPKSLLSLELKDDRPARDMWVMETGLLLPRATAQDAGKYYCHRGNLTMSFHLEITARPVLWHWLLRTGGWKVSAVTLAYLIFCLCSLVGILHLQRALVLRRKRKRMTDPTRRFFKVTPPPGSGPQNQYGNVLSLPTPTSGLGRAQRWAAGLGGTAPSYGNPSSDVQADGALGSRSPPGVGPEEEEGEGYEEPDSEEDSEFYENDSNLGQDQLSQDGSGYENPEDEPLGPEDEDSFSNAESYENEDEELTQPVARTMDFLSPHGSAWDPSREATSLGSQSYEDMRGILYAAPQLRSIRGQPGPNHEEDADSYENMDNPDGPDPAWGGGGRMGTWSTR

[2] = target: T1, human CD19 on cells (human B …); remark: listed apart in the source
[3] = target: T2, cynomolgus monkey CD19 on cynomolgus monkey B lymphocytes (cynoPBMC) (cynomolgus monkey, UniProt A0A2K5W8L9 20-557)
T2 sequence: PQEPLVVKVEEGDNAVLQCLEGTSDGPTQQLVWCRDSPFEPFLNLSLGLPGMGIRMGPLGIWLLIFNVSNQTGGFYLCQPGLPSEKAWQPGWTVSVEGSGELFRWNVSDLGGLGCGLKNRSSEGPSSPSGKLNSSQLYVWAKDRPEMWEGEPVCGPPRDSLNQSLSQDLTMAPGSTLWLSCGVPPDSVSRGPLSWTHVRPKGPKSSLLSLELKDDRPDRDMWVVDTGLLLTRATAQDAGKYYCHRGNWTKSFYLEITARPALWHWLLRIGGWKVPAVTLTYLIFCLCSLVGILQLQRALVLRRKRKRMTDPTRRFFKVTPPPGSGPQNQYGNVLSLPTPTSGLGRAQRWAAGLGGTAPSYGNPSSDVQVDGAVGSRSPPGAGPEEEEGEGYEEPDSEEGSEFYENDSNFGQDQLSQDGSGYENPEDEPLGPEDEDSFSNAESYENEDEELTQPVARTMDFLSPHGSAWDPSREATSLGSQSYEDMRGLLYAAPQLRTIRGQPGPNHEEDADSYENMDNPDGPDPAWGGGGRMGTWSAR

[4] = target: T2, cynomolgus monkey CD19 on cynomolgus …; remark: listed apart in the source

B1: CD19×CD3 bispecific antigen binding protein ITAB2003 (bispecific antibody)
chain: EVQLVESGGGLVQPGGSLRLSCAASGFTFNTYAMNWVRQAPGKGLEWVARIRSKYNNYATYYADSVKDRFTISRDDSKNTLYLQMNSLRAEDTAVYYCVRHGNFGNSYVSWFAYWGQGTMVTVSSGGGGSGGGGSGGGGSQAVVTQEPSLTVSPGGTVTLTCRSSTGAVTTSNYANWVQQKPGQAPRGLIGGTNKRAPGTPARFSGSLLGGKAALTLSGVQPEDEAEYYCALWYSNLWVFGGGTKLTVLGRAGGGQVQLVQSGPELIKPGGSVKMSCKASGYTFTSYVMHWVRQKPGQGLEWIGYINPYNDGTKYNEKFKGRATLTSDKSSSTAYMELSSLRSEDSAVYYCARGTYYYGSRVFDYWGQGTTVTVSSASTKGPSVFPLAPSSKSTSGGTAALGCLVKDYFPEPVTVSWNSGALTSGVHTFPAVLQSSGLYSLSSVVTVPSSSLGTQTYICNVNHKPSNTKVDKKVEPKSCPPCGGGGSHHHHHH
light: DVVMTQSPSSIPVTLGESVSISCRSSKSLLNSNGNTYLYWFQQRPGQSPQLLIYRMSNLASGVPDRFSGSGSGTDFTLRISGVEPEDVGVYYCMQHLEYPLTFGAGTKLEIKRTVAAPSVFIFPPSDEQLKSGTASVVCLLNNFYPREAKVQWKVDNALQSGNSQESVTEQDSKDSTYSLSSTLTLSKADYEKHKVYACEVTHQGLSSPVTKSFNRGECPPC
Question: Which “EC50 of CD19×CD3 BSAP mediated human PBMC cytotoxicity against Raji tumor cells” value [1] does the source give for B1 here?
Answer: The value was 0.49 ng/mL.

Question: What about the “EC50 of CD19×CD3 BSAP mediated PBMC cytotoxicity against autologous B cells (human PBMC)” value (“EC50 … against autologous B cells (human PBMC)” below) [2] of the same binder?
Answer: The value was 2.1 ng/mL.

Question: And the “EC50 of CD19×CD3 BSAP mediated PBMC cytotoxicity against autologous B cells (cynomolgus monkey PBMC)” value [3]?
Answer: The value was over 2090 ng/mL.

B2: CD19×CD3 bispecific antigen binding protein ITAB2006 (bispecific antibody)
chain: EVQLVESGGGLVQPGGSLRLSCAASGFTFNTYAMNWVRQAPGKGLEWVARIRSKYNNYATYYADSVKDRFTISRDDSKNTLYLQMNSLRAEDTAVYYCVRHGNFGNSYVSWFAYWGQGTMVTVSSGGGGSGGGGSGGGGSQAVVTQEPSLTVSPGGTVTLTCRSSTGAVTTSNYANWVQQKPGQAPRGLIGGTNKRAPGTPARFSGSLLGGKAALTLSGVQPEDEAEYYCALWYSNLWVFGGGTKLTVLGRAGGGGAGGGGQVQLVQSGPELIKPGGSVKMSCKASGYTFTSYVMHWVRQKPGQGLEWIGYINPYNDGTKYNEKFKGRATLTSDKSSSTAYMELSSLRSEDSAVYYCARGTYYYGSRVFDYWGQGTTVTVSSASTKGPSVFPLAPSSKSTSGGTAALGCLVKDYFPEPVTVSWNSGALTSGVHTFPAVLQSSGLYSLSSVVTVPSSSLGTQTYICNVNHKPSNTKVDKRVEPKSCPPCGGGGSHHHHHH
light: DVVMTQSPSSIPVTLGESVSISCRSSKSLQNVNGNTYLYWFQQRPGQSPQLLIYRMSNLNSGVPDRFSGSGSGTDFTLRISGVEPEDVGVYYCMQHLEYPITFGAGTKLEIKRTVAAPSVFIFPPSDEQLKSGTASVVCLLNNFYPREAKVQWKVDNALQSGNSQESVTEQDSKDSTYSLSSTLTLSKADYEKHKVYACEVTHQGLSSPVTKSFNRGECPPCS
Question: B2 was tested. Which “cell killing activity relative to ITAB2003 (human PBMC against autologous B cells)” value [1] did it give?
Answer: Its value is at least 7 fold.

Question: And the “cell killing activity relative to ITAB2003 (cynomolgus monkey PBMC against autologous B cells)” value [4]?
Answer: Its value is at least 62 fold.

Question: What about the “EC50 … against autologous B cells (human PBMC)” value [2] of the same binder?
Answer: Its value is 0.2 ng/mL.

Question: What about the “EC50 of CD19×CD3 BSAP mediated PBMC cytotoxicity against autologous B cells (cynomolgus monkey PBMC)” value [3] of the same binder?
Answer: The value was 18.5 ng/mL.

B3: CD19×CD3 bispecific antigen binding protein ITAB2005 (bispecific antibody)
chain: B1 chain
light: B2 light
Question: How did the “cell killing activity relative to ITAB2003 (human PBMC against autologous B cells)” value [1] turn out when B3 was run?
Answer: The value was at least 7 fold.

Question: And the “cell killing activity relative to ITAB2003 (cynomolgus monkey PBMC against autologous B cells)” value [4]?
Answer: The value was at least 62 fold.

Question: What about the “EC50 … against autologous B cells (human PBMC)” value [2] of the same binder?
Answer: The value was 0.3 ng/mL.

Question: What about the “EC50 of CD19×CD3 BSAP mediated PBMC cytotoxicity against autologous B cells (cynomolgus monkey PBMC)” value [3] of the same binder?
Answer: Its value is 33.5 ng/mL.

Reference: US20210301018A1 (ITABMED HK, published 2021)
